Test results published in US20240415888A1 (Memorial Sloan Kettering, published 2024).

Target: T1, human Thyroid Stimulating Hormone Receptor (TSHR), expressed on transfected or transduced cells (human, UniProt P16473 21-764)
T1 construct: also called Hu-TSHR; human TSHR
Experiment: flow cytometry on HEK-293T cells transfected with TSHR expression vectors
Description: Flow Cytometry. Flow cytometry was performed to assess specific binding of TSHR and HER2 bispecific antibodies or to quantify their membrane expression. […] For flow analysis cells were harvested using 0.02% EDTA in phosphate-buffered saline (PBS). […] After washing, cells were captured using a BD LSRFortessa (BD Biosciences). Cells stained with DAPI (1 μg/mL) were excluded. Cytometric analysis was performed using FlowJo (V10.6; FlowJo) to obtain median fluorescence intensity (MFI) or to quantify molecules per cell using QuantiBRITE PE reference beads (BD Biosciences).

| binding result | Binder |
| --- | --- |
| binds | M22/CD3 T-BsAb (anti-TSHR x anti-CD3 bispecific antibody, IgG-[L]-scFv 2+2 format) (bispecific antibody, Expressed in Expi-CHO cells and purified on protein A; also called M22/CD3 BsAb; M22-TSHR/CD3) light: LTVLTQPPSVSGAPRQRVTISCSGNSSNIGNNAVNWYQQLPGKAPKLLIYYDDQLPSGVSDRFSGSRSGTSASLAIRGLQSEDEADYYCTSWDDSLDSQLFGGGTRLTVLGQPKAAPSVTLFPPSSEELQANKATLVCLISDFYPGAVTVAWKADSSPVKAGVETTTPSKQSNNKYAASSYLSLTPEQWKSHRSYSCQVTHEGSTVEKTVAPTECTSGGGGSGGGGSGGGGSQVQLVQSGGGVVQPGRSLRLSCKASGYTFTRYTMHWVRQAPGKCLEWIGYINPSRGYTNYNQKFKDRFTISRDNSKNTAFLQMDSLRPEDTGVYFCARYYDDHYSLDYWGQGTPVTVSSGGGGSGGGGSGGGGSGGGGSGGGGSGGGGSDIQMTQSPSSLSASVGDRVTITCSASSSVSYMNWYQQTPGKAPKRWIYDTSKLASGVPSRFSGSGSGTDYTFTISSLQPEDIATYYCQQWSSNPFTFGCGTKLQITR heavy: not shown |
| binds | K1-70/CD3 T-BsAb (anti-TSHR x anti-CD3 bispecific antibody, IgG-[L]-scFv 2+2 format) (bispecific antibody, also called K1-70/CD3 BsAb; K1-70-TSHR/CD3) light: QSVLTQPPSVSAAPGQKVTISCSGSSSDIGSNYVSWYQQFPGTAPKLLIYDNNKRPSAIPDRFSGSKSGTSATLGITGLQTGDEADYYCGTWDSRLGIAVFGGGTQLTVLGQPKAAPSVTLFPPSSEELQANKATLVCLISDFYPGAVTVAWKADSSPVKAGVETTTPSKQSNNKYAASSYLSLTPEQWKSHRSYSCQVTHEGSTVEKTVAPTECTSGGGGSGGGGSGGGGSQVQLVQSGGGVVQPGRSLRLSCKASGYTFTRYTMHWVRQAPGKCLEWIGYINPSRGYTNYNQKFKDRFTISRDNSKNTAFLQMDSLRPEDTGVYFCARYYDDHYSLDYWGQGTPVTVSSGGGGSGGGGSGGGGSGGGGSGGGGSGGGGSDIQMTQSPSSLSASVGDRVTITCSASSSVSYMNWYQQTPGKAPKRWIYDTSKLASGVPSRFSGSGSGTDYTFTISSLQPEDIATYYCQQWSSNPFTFGCGTKLQITR heavy: not shown |
